Laboratory results from US20190112361A1 (Genentech, published 2019).
No end group written: not given here.

Key:
Tau fragment 28-42 = target: T1, Tau fragment 28-42 (human, UniProt P10636-8 28-42); assay: ELISA on Tau peptides (Example 8)
T1 construct: range 28-42
T1 peptide (looked up): GYTMHQDQEGDTDAG

Tau fragment 37-51 = target: T2, Tau fragment 37-51 (human, UniProt P10636-8 37-51); assay: ELISA on Tau peptides (Example 8)
T2 construct: range 37-51
T2 peptide (looked up): GDTDAGLKESPLQTP

Tau fragment 19-33 = target: T3, Tau fragment 19-33 (human, UniProt P10636-8 19-33); assay: ELISA on Tau peptides (Example 8)
T3 construct: range 19-33
T3 peptide (looked up): GLGDRKDQGGYTMHQ

Tau fragment 1-15 = target: T4, Tau fragment 1-15 (human, UniProt P10636-8 1-15); assay: ELISA on Tau peptides (Example 8)
T4 construct: range 1-15
T4 peptide (looked up): MAEPRQEFEVMEDHA

MAPT(10-24) = target: T5, MAPT(10-24) (human, also: biotinylated); assay: ELISA on Tau peptides (Example 8)
T5 construct: also called Tau fragment 10-24
T5 peptide: VMEDHAGTYGLGDRK

Oligomers = target: T6, Oligomers (In vitro oligomerised (arachidonic acid and heparin) homo-oligomer of one polypeptide; one copy of the chain is given. Biotin sits on the AVI-tag, which is left out.); assay: capture ELISA, antibody on anti-IgG plate, biotinylated oligomeric Tau titrated
T6 construct: also called oligoTau; oligomeric Tau; not shown: AVI-tag (site-specifically biotinylated) and any purification tag or linker of the construct
Protocol: For the oligoTau and monoTau capture ELISAs, antibodies contained in serum-free sterile hybridoma supernatants were immobilized on an anti-IgG coated plate at 500-fold dilution, followed by the incubation of oligoTau or monoTau, both with site-specific biotinylation via an AVI-tag. The target incubations started at 5 μg/mL and then were diluted 8- or 16-fold. Streptavidin-HRP and ABTS substrate was used for signal quantitation in a plate reader (Tecan, Switzerland). Results are expressed as O.D.

[1] = target: T7, human Tau monomer (recombinant 2N4R isoform, amino acids 2-441) (human, UniProt P10636-8 2-441); assay: ELISA, Avi-tag biotinylated Tau monomer on Neutravidin plate, IgG titrated
T7 construct: range 2-441; also called monomeric human Tau; monomeric Tau
Protocol: (§1) Following a comparison of 37D3-H9 binding to biotinylated Tau monomer and biotinylated peptide (MAPT_10-24), binding of 37D3-H9 to additional biotinylated peptides was also assessed. Nunc maxisorp 96-well microplates were coated at 4° C. for >12 hours with Neutravidin diluted to 2 μg/ml in 50 mM Sodium Carbonate Buffer, pH 9.6. All subsequent incubations were performed at room temperature. After coating, plates were blocked with Superblock™ (PBS) Blocking Buffer (Thermo Fisher Scientific) for two hours then washed thoroughly with PBS, 0.05% Polysorbate 20. Wells were then exposed to biotinylated Tau peptides (Table 20) or Avi-tag biotinylated Tau monomer at 1 μg/ml for one hour and washed as previously. Peptides were synthesized using standard solid-phase Fmoc chemistry (see, e.g., Fmoc solid phase peptide synthesis: A practical approach; Chan, W. C., White, P. D., Eds.; Oxford University Press: New York, 2000). […] Wells were washed as previously and bound antibody detected with peroxidase-conjugated secondary antibody (Invitrogen/Life Technologies) diluted 1/1000 in Superblock™ Blocking Buffer (Rabbit anti-Mouse IgG or Goat Anti-Human IgG (H+L) respectively). […] Reactions were stopped by addition of 1M Phosphoric Acid and absorbance at 450 nm was measured with a SpectraMax M2 platereader.

MAPT(2-34) = target: T8, MAPT(2-34) (human, biotinylated); assay: ELISA, biotinylated peptide on Neutravidin plate, IgG titrated
T8 construct: also called Tau fragment 2-34
T8 peptide: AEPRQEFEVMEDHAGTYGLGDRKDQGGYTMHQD
Protocol: as §1

MAPT(2-24) = target: T9, MAPT(2-24) (human, biotinylated); assay: as above
T9 construct: also called Tau fragment 2-24
T9 peptide: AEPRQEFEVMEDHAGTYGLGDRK
Protocol: as §1

B1: 19H6-F7 (antibody, mouse IgG2a, V domains shown)
VH: EVQLVESGGDLVKPGGSLKLSCAASGFTFSSYGMSWVRQTPDKRLEWVATISSGGTYTYYPDSVKGRFTISRDNAKNTLYLQMSSLKSEDTAMYYCAPSYDGAMDYWGQGTSVTVSS
VL: DVLMTQTPLSLPVSLGDQASISCRSSQSIVHSNGNTYLEWYLQKPGQSPKLLIYKVSNRFSGVPDRFSGSGSGTDFTLKISRVEAEDLGVYYCFQGSLVPWTFGGGTKLEIK
Tau fragment 28-42
  binding result: no binding (tested: not shown on the sheet)
Tau fragment 37-51
  binding result: no binding (tested: not shown on the sheet)
Tau fragment 19-33
  binding result: no binding (tested: not shown on the sheet)
Tau fragment 1-15
  binding result: no binding (tested: not shown on the sheet)

B2: 3A4-H4 (antibody, mouse IgG2a, V domains shown)
VH: EVQLVESGGDLVKPGGSLKLSCAASGFTFSSYGMSWVRQTPDKRLEWVATISSGGTYTYYPDSVKGRFTISRDNAKNTLYLQMSSLKSEDTAMYFCATSYDGAMDYWGQGTSVTVSS
VL: DVLMTQTPLSLPVSLGDQASISCRSSQNIVHSNGNTYLEWYLQKPGQSPKLLIYKVSNRFSGVPDRFSGSGSGTDFTLKISRVEAEDLGVYYCFQGTLVPWTFGGGTKLEIK
MAPT(10-24)
  binding result: binds
Tau fragment 28-42
  binding result: no binding (tested: not shown on the sheet)
Tau fragment 37-51
  binding result: no binding (tested: not shown on the sheet)
Tau fragment 19-33
  binding result: no binding (tested: not shown on the sheet)
Tau fragment 1-15
  binding result: no binding (tested: not shown on the sheet)

B3: 11E10-B8 (antibody, mouse IgG2a, V domains shown)
VH: EVQLVESGGDLVKPGGSLKLSCAASGFTFRSYGMSWVRQTPDKRLEWVATISGGGSYTYYPDSVKGRFTISRDNAKNTLYLQMSSLKSEDTAMYYCAVSYDGAMDYWGQGTSVTVSS
VL: DVLMTQTPLSLPVSLGDQASISCRSSQSIVHSNGNTYLEWYLQKPGQSPKLLIYKVSNRFSGVPDRFSGSGSGTDFTLKISRVEAEDLGLYYCFQGSHVPWTFGGGTKLEIK
Oligomers
  binding result: binds

B4: 37D3-H9 (antibody, mouse IgG2a, V domains shown)
VH: EVQLVESGGDLAKPGGSLKLSCTASGLIFRSYGMSWVRQTPDKRLEWVATINSGGTYTYYPDSVKGRFTISRDNAKNTLYLQMSSLKSEDTAMYYCANSYSGAMDYWGQGTSVTVSS
VL: DDLLTQTPLSLPVSLGDPASISCRSSQSIVHSNGNTYFEWYLQKPGQSPKLLIYKVSNRFSGVPDRFSGSGSGTDFTLKISRVEAEDLGVYYCFQGSLVPWTFGGGTKLEIK
notes: also called 37D3-H9 mIgG2a; 37D3-H9 IgG
Tau fragment 28-42
  binding result: no binding (tested: not shown on the sheet)
Tau fragment 37-51
  binding result: no binding (tested: not shown on the sheet)
Tau fragment 19-33
  binding result: no binding (tested: not shown on the sheet)
Tau fragment 1-15
  binding result: no binding (tested: not shown on the sheet)
[1]
  EC50 (read off the curve): ~0.1 nM
MAPT(2-34)
  EC50 (read off the curve): ~0.2 nM
MAPT(2-24)
  EC50 (read off the curve): ~0.2 nM

B5: 54C1-H11 (antibody, mouse IgG2a, V domains shown)
VH: EVQLVESGGDLVKPGGSLKVSCVASGFTFRSYGMSWVRQTPDKRLDWVATISSGGNYTYYPDSVKGRFTISRDNAKNTLYLQMSSLKSEDTAMYYCASSYSGAMDYWGQGTSVTVSS
VL: DTVMTQSPLSLPVSLGDQASISCRSSQSIVHSNGNTYLEWYLQKPGQSPKLLIYTVSNRFSGVPDRFSGSGSGTDFTLKISRVEAEDLGVYYCFQGSHVPWTFGGGTKLEIK
Tau fragment 28-42
  binding result: no binding (tested: not shown on the sheet)
Tau fragment 37-51
  binding result: no binding (tested: not shown on the sheet)
Tau fragment 19-33
  binding result: no binding (tested: not shown on the sheet)
Tau fragment 1-15
  binding result: no binding (tested: not shown on the sheet)

B6: 19F8-B1 (antibody, V domains shown)
VH: EVQLQQSGPELVKPGASVKMSCKASGYTFTDYYMKWVKQSHGKSLEWIGDLNPNNGGTLYNQKFKGQATLTVDKSSSTAYMQFNSLTSEDSAVYYCARSAGYGDSFAYWGQGTLVTVSA
VL: DVLMTQTPLSLPVSLGDQASISCRSSQNIVHSNGNTYLEWYLQKPGQSPKLLIYKVSNRFSGVPDRFSGSGSGTDFTLKISRVEAEDLGIYFCFQGSHVPPTFGGGTKLEIK
notes: hybridoma supernatant
Oligomers
  binding result: binds

B7: 123E9-A1 (antibody, mouse IgG2a, V domains shown)
VH: EVQLQQSGPELVKPGASVKMSCKASGYTFTDYYMKWVKQSHGKSLEWIGDIDPNNGGTSYNQKFKGKATLTVDKSSSTAYMQLNSLTSEDSAVYYCARSAGFGDSFSFWGLGTLVTVSA
VL: DVLMTQTPLSLPVSLGDQASISCRSSQSIVHSNGNTYLEWYLQKPGQSPKLLIYKVSNRFSGVPDRFSGSGSGTDFTLKISRVEAEDLGFYYCFQGSHVPPTFGGGTKLEIK
MAPT(10-24)
  binding result: no binding (tested: not shown on the sheet)
Tau fragment 37-51
  binding result: no binding (tested: not shown on the sheet)
Tau fragment 1-15
  binding result: no binding (tested: not shown on the sheet)

B8: 26C1-C8 (antibody, V domains shown)
VH: EVHLQQSGAELVRSGASVKLSCTASGFNIKDYYMYWVKQRPEQGLEWIGWIDPENGDTEYFPKFQGKATMTADTSSKTAYLQLSSLTSEDTAVYYCNAWRARATNSALDYWGQGTSVTVSS
VL: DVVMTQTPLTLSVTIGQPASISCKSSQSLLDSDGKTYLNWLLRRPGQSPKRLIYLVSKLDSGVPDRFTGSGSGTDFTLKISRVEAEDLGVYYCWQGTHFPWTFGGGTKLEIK
notes: hybridoma supernatant
Oligomers
  binding result: binds

B9: 89F4-A1 (antibody, mouse IgG2a, V domains shown)
VH: EVQLVESGGGLVQPKGSLKLSCAASGFTFNTYAMNWVRQAPGKGLEWVARIRSKSNNYAAYFADSVKDRFTISRDDSQTMLYLQMNNLKSEDTAMYYCVSGGNYVPFAYWGQGTLVTVSA
VL: NIMMTQSPSSLAVSAGEKVTMSCKSSQSVFYSSEQRNYLAWYQQKPGQSPKLLISWASTRESGVPDRFTGSGSGTDFTLTISSVQGEDLAVYYCHQYLSSFTFGSGTKLEIK
MAPT(10-24)
  binding result: no binding (tested: not shown on the sheet)
Tau fragment 19-33
  binding result: no binding (tested: not shown on the sheet)
Tau fragment 1-15
  binding result: no binding (tested: not shown on the sheet)

B10: 94B2-C1 (antibody, mouse IgG2a, V domains shown)
VH: EVQLQQSGPELVKPGASMKISCKASGYSLTGYTMNWVKQSHGKNLEWIGLISPYNGVTSYNQKFKGKATLTVDKSSNTAYMELLSLTFEDSAVYYCARQGAYWGQGTLVTVSA
VL: not shown
Tau fragment 28-42
  binding result: no binding (tested: not shown on the sheet)
Tau fragment 37-51
  binding result: no binding (tested: not shown on the sheet)
